Protein stability index data for 94 variants are collected here from the supplement of paper PMC10567573.

First the molecules themselves.
B1: CCND1 (parent)
chain: PEAEENKQIIRKHAQTFVALCATD
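Further: lentivirally expressed fusions sorted by FACS into six bins by GFP to DsRed ratio, PSI derived from sequencing read proportions per bin multiplied by bin number.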

Variants of B1 are the subject of this data set. Description: protein stability index of a GFP-peptide fusion (GPS, HEK-293T) (PSI 1-6); higher = more stable. Particulars: c terminus: a fixed tail appended.
Turning to PEAEENKQIIRWHAQTFVALCATD [K12W], the protein stability index is 2.34. For the variant PEAEENKQIIRTHAQTFVALCATD [K12T], the protein stability index came to 3.06.

Regarding PEAEENKQIIRNHAQTFVALCATD [K12N], the protein stability index is 3.25.

PEAEENKQIIRHHAQTFVALCATD [K12H]: the protein stability index is 3.47.

As for PEAEENKQIIRAHAQTFVALCATD [K12A], the protein stability index was determined as 3.83.

Consider PEAEENKQIIRYHAQTFVALCATD [K12Y], for which the protein stability index is 3.49. Then PEAEENKQIIRQHAQTFVALCATD [K12Q], with 3.9; and PEAEENKQIIRCHAQTFVALCATD [K12C], with 2.76; and PEAEENKQIIRRHAQTFVALCATD [K12R], with 2.67. For PEAEENKQIIREHAQTFVALCATD [K12E] the value was 4.58; for PEAEENKQIIRGHAQTFVALCATD [K12G], 3.65. Turning to PEAEENKQIIRSHAQTFVALCATD [K12S], the protein stability index turned out to be 2.29. For PEAEENKQIIRIHAQTFVALCATD [K12I] the value was 2.39; for PEAEENKQIIRMHAQTFVALCATD [K12M], 2.73; for PEAEENKQIIRVHAQTFVALCATD [K12V], 3.13. Then PEAEENKQIIRDHAQTFVALCATD [K12D], with 3.66. As for PEAEENKQIIRFHAQTFVALCATD [K12F], the protein stability index came out at 2.51.

Take PEAEENKQIIRPHAQTFVALCATD [K12P]: the protein stability index amounted to 4.03. Then PEAEENKQIIRLHAQTFVALCATD [K12L], with 2.77; and PEAEENKQIGRKHAQTFVALCATD [I10G], with 2.53. PEAEENKQIERKHAQTFVALCATD [I10E]: the protein stability index came to 3.64. For PEAEENKQIYRKHAQTFVALCATD [I10Y] the value was 2.29; for PEAEENKQIPRKHAQTFVALCATD [I10P], 3.14; for PEAEENKQIFRKHAQTFVALCATD [I10F], 2.48.

On to PEAEENKQIRRKHAQTFVALCATD [I10R], for which the protein stability index was determined as 3.19.

Take PEAEENKQINRKHAQTFVALCATD [I10N]: the protein stability index came to 3.04. Then PEAEENKQIKRKHAQTFVALCATD [I10K], with 2.92; and PEAEENKQIVRKHAQTFVALCATD [I10V], with 3.39. Then PEAEENKQISRKHAQTFVALCATD [I10S], with 2.53; and PEAEENKQIHRKHAQTFVALCATD [I10H], with 3.5; and PEAEENKQIMRKHAQTFVALCATD [I10M], with 3.5. Then PEAEENKQILRKHAQTFVALCATD [I10L], with 3.48; and PEAEENKQITRKHAQTFVALCATD [I10T], with 3.04. In the case of PEAEENKQIQRKHAQTFVALCATD [I10Q], the protein stability index is 2.81.

In the case of PEAEENKQIWRKHAQTFVALCATD [I10W], the protein stability index amounted to 3.22. Then PEAEENKQIIRKHAATFVALCATD [Q15A], with 3.45; and PEAEENKQIIRKHACTFVALCATD [Q15C], with 2.84. For PEAEENKQIIRKHCQTFVALCATD [A14C] the value was 2.72; for PEAEENKQIIRKHVQTFVALCATD [A14V], 2.3; for PEAEENKQIIRKHMQTFVALCATD [A14M], 2.97.

On to PEAEENKQIIRKHNQTFVALCATD [A14N], for which the protein stability index was 3.77. On to PEAEENKQIIRKHIQTFVALCATD [A14I], for which the protein stability index came to 2.29. For PEAEENKQIIRKHPQTFVALCATD [A14P] the value was 2.64. For PEAEENKQIIRKHKQTFVALCATD [A14K] the value was 2.38; for PEAEENKQIIRKHFQTFVALCATD [A14F], 2.79. For PEAEENKQIIRKHYQTFVALCATD [A14Y] the value was 2.44; for PEAEENKQIIRKHEQTFVALCATD [A14E], 3.45. Take PEAEENKQIIRKHRQTFVALCATD [A14R]: the protein stability index came out at 1.85. Then PEAEENKQIIRKHHQTFVALCATD [A14H], with 2.62; and PEAEENKQIIRKHTQTFVALCATD [A14T], with 2.33.

As for PEAEENKQIIRKHSQTFVALCATD [A14S], the protein stability index stood at 2.96.

As to PEAEENKQIIRKHDQTFVALCATD [A14D], the protein stability index was found to be 3.71.

Turning to PEAEENKQIIRKHGQTFVALCATD [A14G], the protein stability index is 3.71. For the variant PEAEENKQIIRKHLQTFVALCATD [A14L], the protein stability index is 2.18. For PEAEENKQIIRKHWQTFVALCATD [A14W], the protein stability index was 1.94.

Regarding PEAEENKQIIRKHQQTFVALCATD [A14Q], the protein stability index turned out to be 2.28.

With PEAEENKQIIRKDAQTFVALCATD [H13D], the protein stability index is 4.02. Then PEAEENKQIIRKVAQTFVALCATD [H13V], with 3.02. For PEAEENKQIIRKPAQTFVALCATD [H13P] the value was 3.17; for PEAEENKQIIRKRAQTFVALCATD [H13R], 2.9. For PEAEENKQIIRKYAQTFVALCATD [H13Y], the protein stability index was 2.59. For PEAEENKQIIRKTAQTFVALCATD [H13T] the value was 3.07. For PEAEENKQIIRKSAQTFVALCATD [H13S] the value was 2.54. For PEAEENKQIIRKAAQTFVALCATD [H13A] the value was 3.11; for PEAEENKQIIRKWAQTFVALCATD [H13W], 2.25; for PEAEENKQIIRKCAQTFVALCATD [H13C], 2.65.

For PEAEENKQIIRKQAQTFVALCATD [H13Q], the protein stability index stood at 3.4.

PEAEENKQIIRKFAQTFVALCATD [H13F]: the protein stability index is 2.55.

Consider PEAEENKQIIRKGAQTFVALCATD [H13G], for which the protein stability index came out at 3.84. Then PEAEENKQIIRKMAQTFVALCATD [H13M], with 2.89; and PEAEENKQIIRKEAQTFVALCATD [H13E], with 3.7; and PEAEENKQIIRKIAQTFVALCATD [H13I], with 1.87.

With PEAEENKQIIRKNAQTFVALCATD [H13N], the protein stability index amounted to 2.53. As to PEAEENKQIIRKKAQTFVALCATD [H13K], the protein stability index was 2.02. Then PEAEENKQIIRKLAQTFVALCATD [H13L], with 2.81; and PEAEENKQIICKHAQTFVALCATD [R11C], with 2.94; and PEAEENKQIILKHAQTFVALCATD [R11L], with 3.25. For PEAEENKQIIDKHAQTFVALCATD [R11D] the value was 4.11. For PEAEENKQIINKHAQTFVALCATD [R11N] the value was 3.59. Consider PEAEENKQIIYKHAQTFVALCATD [R11Y], for which the protein stability index came to 2.88. Then PEAEENKQIIFKHAQTFVALCATD [R11F], with 2.64; and PEAEENKQIIKKHAQTFVALCATD [R11K], with 2.9; and PEAEENKQIIGKHAQTFVALCATD [R11G], with 3.16.

In the case of PEAEENKQIITKHAQTFVALCATD [R11T], the protein stability index came out at 3.47. For PEAEENKQIIIKHAQTFVALCATD [R11I] the value was 2.84; for PEAEENKQIIPKHAQTFVALCATD [R11P], 3.28.

For PEAEENKQIIMKHAQTFVALCATD [R11M], the protein stability index stood at 2.71. PEAEENKQIIHKHAQTFVALCATD [R11H]: the protein stability index came to 3.33. Then PEAEENKQIIVKHAQTFVALCATD [R11V], with 3.14; and PEAEENKQIIQKHAQTFVALCATD [R11Q], with 3.61; and PEAEENKQIIAKHAQTFVALCATD [R11A], with 3.58. For PEAEENKQIIWKHAQTFVALCATD [R11W] the value was 2.6. Then PEAEENKQIIEKHAQTFVALCATD [R11E], with 3.76.

Turning to PEAEENKQIISKHAQTFVALCATD [R11S], the protein stability index was 2.62.
